Read-outs that look alike come from different tables or passages of the source.
Experiments:
[1] = target: T1, alkaline phosphatase (ALP) (Bos taurus, UniProt P19111); test: Enzymatic assay of 5 with alkaline phosphatase, aggregation followed by absorption spectroscopy; format: biochemical, bovine
T1 construct: Alkaline phosphatase from bovine intestinal mucosa was purchased from Sigma-Aldrich; purchased Sigma-Aldrich; host or cells: bovine intestinal mucosa (tissue-derived)
Protocol: The stock solution of 5 in DMSO was diluted with PBS to prepare sample solutions with different concentrations (0.10 μM, 0.20 μM, 0.50 μM, 1.0 μM, 2.0 μM, and 5.0 μM). Each sample was treated with 2 U/mL of alkaline phosphatase (ALP) and incubated overnight at 37° C. The absorption spectra across the range 300-700 nm, where the porphyrin absorbs strongly, were measured before and after the enzyme treatment for each sample (FIG. 4, panels A-F). For samples with concentration lower than 0.50 μM (FIG. 4, panels A, B), the intensity of the Soret band of 5 at 420 nm decreased after enzyme treatment, yet precipitation or other signs of aggregation were not observed. When the concentration of the sample was equal to or higher than 0.50 μM (FIG. 4, panels C-F), the intensity of the Soret peak at 420 nm decreased and a new peak appeared at 455 nm after the enzyme treatment. The new peak at 455 nm indicates the aggregation of the sample upon the treatment of ALP. The Q band (at ˜550 nm) also underwent a bathochromic shift and broadening, albeit of lesser magnitude than that of the higher-energy Soret band. Compound 5′, which lacks the two phosphoester moieties, is prone to aggregation in PBS, consistent with the observed results for ALP treatment of 5. The change in the color of the sample was also observed. After the overnight incubation, the color of the sample changed from pink to orange.
To confirm that the peak appeared after enzyme treatment was caused by aggregation, DMSO was added to the sample of 5 (5.0 μM in PBS) after enzyme treatment to disaggregate the sample. After adding DMSO to dilute the solution in half, the peak at 455 nm almost disappeared and the intensity of the peak at 420 nm increased. Color changes of the solution were observed during the treatment, with the solution appearing pink initially (indicating a monomeric state), then yellow after treatment with ALP (indicating aggregation), and finally returning to pink after dilution with DMSO, albeit a lighter pink than the initial solution, due to dilution (indicating disaggregation). The result further confirmed that compound 5 aggregates in aqueous solution after the enzyme treatment.
Enzymatic assay. The stock solution of 5 in DMSO (2 mM) was diluted with PBS to prepare sample solutions with different concentrations. The final concentrations of 5 in each sample were 0.20 μM, 0.50 μM, 1.0 μM, 2.0 μM, 5.0 μM and 10 μM, respectively. A solution of alkaline phosphatase from bovine intestinal mucosa (10 μL, 100 U/mL in PBS) was added to each sample solution to reach a final volume of 500 μL (PBS containing 0.5% DMSO). The reaction mixture was incubated overnight at 37° C. Then each sample was analyzed by absorption spectroscopy. Samples without the treatment of ALP were also analyzed to serve as controls.
To confirm the aggregation of the dephosphorylated 5 in PBS, 500 μL of DMSO was added to one of the treated samples (10 μM) and was then analyzed by absorption spectroscopy.

[2] = test system: alkaline phosphatase (ALP); settings: 10 μM in PBS, 10 min at 10000 rpm
Protocol: Samples of 5 (10 μM in PBS) with or without ALP treatment were centrifuged with Amicon centrifugation devices (molecular cutoff 50 kDa). […] Solutions collected in the bottom or top tube for the sample that underwent enzyme treatment were analyzed with absorption spectroscopy (FIG. 5).

[3] = Absorption spectroscopy in PBS or DMSO (solubility / aggregation); format: physicochemical; settings: PBS; absorption spectra 0.1-100 μM; read-out: soluble in PBS with essentially no aggregation or assembly
Protocol: Samples of 5′ at 1 μM in DMSO or PBS were analyzed by absorption spectroscopy (FIG. 8, panel A). […] In PBS, two broad peaks at 417 nm and 455 nm were observed, indicating aggregation of the sample at 1 μM. Samples of 4′ at 1 μM in DMSO or PBS were also analyzed for comparison (FIG. 8, panel B). The spectrum of the sample in DMSO was identical with 5′, while in PBS the Soret band spilt into 3 broad peaks at 409 nm, 419 nm and 455 nm. The different spectra between 4′ and 5′ might result from different ways of porphyrin stacking, as 4′ doesn't have the long PEG chain in its structure.
Samples of 0.1 μM, 1 μM, 10 μM and 100 μM were analyzed using cuvettes with a pathlength of 10 cm, 1 cm, 0.1 cm and 0.01 cm, respectively. There is only a very slight broadening of the absorption bands at 100 μM, and at all concentrations the general spectroscopic features characteristic of the porphyrin are retained.

[4] = target: T1, alkaline phosphatase (ALP); test: Enzymatic cleavage of 5 by ALP monitored by reverse-phase HPLC; format: biochemical, bovine; settings: 200 μM in PBS, 2 U/mL ALP, 37° C., 6-hour incubation
Protocol: The enzymatic cleavage was monitored with reverse-phase high performance liquid chromatography. A solution of 200 μM 5 in PBS was treated with 2 U/mL ALP and incubated at 37° C. A small part of sample was taken from the reaction at different time points (30 min, 1 h, 2 h, 4 h, 6 h and 8 h) and was analyzed by HPLC (5-95% MeCN/10 mM NH4HCO3 in H2O) (FIG. 7). The 3 peaks in the chromatograph after 30 min of ALP treatment represents compound 5 (peak 1), partially cleaved product (peak 2) and fully cleaved product (peak 3). The reaction almost completes after 6-hour incubation (>95% by integration). The LC trace of the standard dephosphorylated sample 5′ is shown for comparison. Attempts were made to get LC-MS data for 5 but no mass signal was detected. This might result from the poor solubility of 5 in the acidic mobile phase (MeCN/H2O, 0.1% FA).
Reverse phase high performance liquid chromatography. A solution of 200 μM 5 in PBS was treated with 2 U/mL ALP and incubated at 37° C. A small part of sample was taken from the reaction at different time points (30 min, 1 h, 2 h, 4 h, 6 h and 8 h) and was analyzed by RP-HPLC with an Agilent Zorbax SB-C18 column (5 μm, 4.6×150 mm). The sample was run for 15 min with a linear gradient (5-95% MeCN/10 mM NH4HCO3 in H2O) and detected with a diode-array detector at 420 nm.

[5] = Fluorescence spectroscopy of aggregation (intensity in PBS vs DMSO); format: physicochemical; settings: 316 nM in PBS; incomplete aggregation
Protocol: Aggregation of 5′ at low concentrations was analyzed by fluorescence spectroscopy. The ratio of maximum fluorescence intensity of samples in PBS to that of sample in DMSO was plotted against concentration (FIG. 9). The ratio decreased as the concentration increased in the range of 1.0 nM to 316 nM, which implies that 5′ aggregates more in PBS as the concentration increases. Even with the concentration of 316 nM, the sample didn't aggregate completely in PBS and retained ˜30% fluorescence. The long PEG chain in 5′ provides the compound with good hydrophilicity and may contribute to incomplete aggregation. Fluorescence intensity at higher or lower concentrations was not measured due to the detection range of the instrument. The porphyrin-peptide conjugate without PEG chain, 4′, was examined by fluorescence intensity as well. Samples at 31.6 nM, 100 nM, and 316 nM were analyzed and the fluorescence intensity ratio of all samples was below 2%. The results imply that 4′ almost aggregates completely even at a very low concentration.
Fluorescence spectroscopy. Samples were dissolved in PBS and DMSO at different concentrations. The excitation wavelength was 419 nm for all samples in DMSO, 415 nm for 5′ in PBS, and 419 nm for 4′ in PBS. The intensity ratio was calculated with the maximum emission of each sample. […]

T1 sequence (P19111 20-506 limits assumed): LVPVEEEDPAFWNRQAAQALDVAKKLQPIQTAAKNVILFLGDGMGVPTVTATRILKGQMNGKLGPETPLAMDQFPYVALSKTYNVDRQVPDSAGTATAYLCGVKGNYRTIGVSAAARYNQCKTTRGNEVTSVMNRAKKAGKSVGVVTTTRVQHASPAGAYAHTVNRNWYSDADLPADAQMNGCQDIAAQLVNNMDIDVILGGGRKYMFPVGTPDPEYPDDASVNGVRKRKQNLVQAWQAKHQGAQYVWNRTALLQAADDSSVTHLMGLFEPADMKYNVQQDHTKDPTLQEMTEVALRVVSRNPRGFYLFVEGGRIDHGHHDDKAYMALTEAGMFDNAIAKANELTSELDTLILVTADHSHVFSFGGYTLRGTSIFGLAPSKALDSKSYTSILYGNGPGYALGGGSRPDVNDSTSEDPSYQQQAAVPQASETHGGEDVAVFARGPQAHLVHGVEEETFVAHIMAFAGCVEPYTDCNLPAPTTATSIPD

Molecule | behaviour of activated form at very low concentration ([1]; 0.1 μM) | concentration at which new peak at 455 nm (aggregation) appears after enzyme treatment ([1]; PBS with 0.5% DMSO, 2 U/mL ALP, overnight 37° C.) [nM] | reversibility of aggregation ([1]; after ALP treatment in PBS, upon addition of DMSO) | precipitation after high-speed centrifugation or long-time storage ([1]; after ALP treatment, centrifugation >10000 rpm or storage >1 month) | formation of microcrystals or precipitates upon ALP treatment ([1]; concentration as high as 200 μM) | passage through 50 kDa membrane ([2]; after ALP treatment) | passage through 50 kDa membrane ([2]; without ALP treatment) | solubility [3] [µM] | completion of dephosphorylation reaction by HPLC integration [4] [%] | fluorescence retained in PBS (relative to DMSO) [5] [%]
COCCOCCOCCOCCOCCOCCOCCOCCOCCOCCOCCOCCOCCOCCOCCOCCOCCOCCOCCOCCOCCOCCOCCOCCn1cc(-c2ccc(-c3c4nc(cc5ccc([nH]5)c(-c5c(OCc6cn(CCC(=O)NCC(=O)N[C@H](Cc7ccccc7)C(=O)N[C@H](Cc7ccccc7)C(=O)N[C@@H](Cc7ccc(OP(=O)(O)O)cc7)C(=O)O)nn6)cccc5OCc5cn(CCC(=O)NCC(=O)N[C@H](Cc6ccccc6)C(=O)N[C@H](Cc6ccccc6)C(=O)N[C@@H](Cc6ccc(OP(=O)(O)O)cc6)C(=O)O)nn5)c5nc(cc6ccc3[nH]6)C=C5)C=C4)cc2)nn1 [Compound 5, PEG24-GffY(p)-OH] | came out of solution without forming a gel superstructure | ≥ 500 | reversible | No precipitation or microcrystals were observed | did not form microcrystals or precipitates | didn't pass through the membrane | passed through the 50 kDa membrane | ≥ 100 | > 95 | –
PEG24-GffY-OH [Compound 5′] | – | – | – | – | – | – | – | – | – | ~30

Reference: patent publication US20250009913A1, “COMPOUNDS FOR USE IN NON-COVALENT SCAFFOLD AND METHODS RELATED THERETO” (NORTH CAROLINA STATE UNIVERSITY, priority 2023, published 2025)
